Measurements: IntAct's records for PubMed 22615398

What was measured:
[1] = target: gemi_human GMNN (UniProt O75496)
[2] = target: gemi_human GMNN (UniProt O75496); remark: listed apart in the source

gemi_human GMNN, sequence (O75496 whole entry): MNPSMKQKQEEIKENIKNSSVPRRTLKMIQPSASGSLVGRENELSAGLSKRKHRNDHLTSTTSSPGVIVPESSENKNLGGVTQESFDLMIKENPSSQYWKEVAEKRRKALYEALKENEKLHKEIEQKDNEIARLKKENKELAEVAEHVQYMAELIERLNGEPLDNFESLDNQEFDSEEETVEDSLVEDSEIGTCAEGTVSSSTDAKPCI
Homeobox protein Hox-C9 (Homo sapiens), P31274 R193A;K194A;K195A;R196A, sequence (P31274 whole entry R193A/K194A/K195A/R196A): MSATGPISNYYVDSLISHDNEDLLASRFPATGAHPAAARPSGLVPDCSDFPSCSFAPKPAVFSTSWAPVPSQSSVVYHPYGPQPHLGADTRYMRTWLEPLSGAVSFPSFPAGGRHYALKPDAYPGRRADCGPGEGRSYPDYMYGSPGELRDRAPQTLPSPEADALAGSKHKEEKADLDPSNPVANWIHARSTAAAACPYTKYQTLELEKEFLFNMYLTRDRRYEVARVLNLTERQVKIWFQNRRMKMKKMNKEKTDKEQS
Homeobox protein Hox-C9 (Homo sapiens), P31274 R234A;M245A, sequence (P31274 whole entry R234A/M245A): as the sequence (P31274 whole entry R193A/K194A/K195A/R196A) above, with A193R, A194K, A195K, A196R, R234A, M245A counted along it
Paired box protein Pax-6 (Homo sapiens), P26367 A252R;A263M, sequence (P26367 whole entry A252R/A263M): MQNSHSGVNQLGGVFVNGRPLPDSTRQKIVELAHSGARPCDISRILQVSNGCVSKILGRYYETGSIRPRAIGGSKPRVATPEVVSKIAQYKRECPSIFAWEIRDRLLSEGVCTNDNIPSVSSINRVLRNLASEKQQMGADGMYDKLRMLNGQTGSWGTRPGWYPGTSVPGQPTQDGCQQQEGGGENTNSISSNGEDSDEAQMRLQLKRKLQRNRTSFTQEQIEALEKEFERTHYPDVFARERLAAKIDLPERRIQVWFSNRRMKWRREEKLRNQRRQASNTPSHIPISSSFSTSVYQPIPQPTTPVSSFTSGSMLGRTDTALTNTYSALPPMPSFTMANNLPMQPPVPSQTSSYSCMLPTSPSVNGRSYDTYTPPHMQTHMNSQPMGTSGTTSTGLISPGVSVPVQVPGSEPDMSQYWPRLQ

Row | Substance | effect of a mutation on the interaction [1] | effect of a mutation on the interaction [2]
1 | Homeobox protein Hox-C9 (Homo sapiens), P31274 R193A;K194A;K195A;R196A | decreasing interaction strength | 
2 | Paired box protein Pax-6 (Homo sapiens), P26367 A252R;A263M |  | increasing interaction strength
3 | Homeobox protein Hox-C9 (Homo sapiens), P31274 R234A;M245A | decreasing interaction strength | 
